Measurements reported in patent US20230270815A1 (RAJIV GANDHI CENTRE FOR BIOTECHNOLOGY, published 2023).
No end group written: not given here.

Key:
DLL1 = target: T1, DLL1 (UniProt O00548 18-723, limits assumed); experiment: co-immunofluorescence on HSC-4 cells
T1 construct: whole, on cells
T1 sequence (looked up): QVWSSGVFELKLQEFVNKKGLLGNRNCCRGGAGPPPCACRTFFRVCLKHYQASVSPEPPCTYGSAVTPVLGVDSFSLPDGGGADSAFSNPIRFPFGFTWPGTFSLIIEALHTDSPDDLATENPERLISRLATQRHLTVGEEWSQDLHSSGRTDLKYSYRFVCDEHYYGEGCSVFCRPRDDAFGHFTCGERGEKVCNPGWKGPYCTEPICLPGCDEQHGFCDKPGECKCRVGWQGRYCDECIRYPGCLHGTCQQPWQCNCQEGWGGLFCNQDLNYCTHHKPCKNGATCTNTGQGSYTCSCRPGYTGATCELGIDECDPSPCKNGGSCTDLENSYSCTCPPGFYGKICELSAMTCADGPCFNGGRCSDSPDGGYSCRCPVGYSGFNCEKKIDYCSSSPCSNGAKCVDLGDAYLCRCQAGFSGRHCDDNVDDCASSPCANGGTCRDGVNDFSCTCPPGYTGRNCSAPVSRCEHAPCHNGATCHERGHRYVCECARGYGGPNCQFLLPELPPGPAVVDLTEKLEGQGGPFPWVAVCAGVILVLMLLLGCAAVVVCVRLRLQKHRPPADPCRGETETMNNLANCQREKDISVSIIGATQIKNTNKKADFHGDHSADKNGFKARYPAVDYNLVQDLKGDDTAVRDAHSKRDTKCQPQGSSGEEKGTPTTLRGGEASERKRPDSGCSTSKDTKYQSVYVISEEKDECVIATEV

GRPR = target: T2, GRPR (UniProt P30550 1-384, limits assumed); experiment: co-immunofluorescence on HSC-4 cells
T2 construct: whole, on cells
T2 sequence (P30550 whole entry): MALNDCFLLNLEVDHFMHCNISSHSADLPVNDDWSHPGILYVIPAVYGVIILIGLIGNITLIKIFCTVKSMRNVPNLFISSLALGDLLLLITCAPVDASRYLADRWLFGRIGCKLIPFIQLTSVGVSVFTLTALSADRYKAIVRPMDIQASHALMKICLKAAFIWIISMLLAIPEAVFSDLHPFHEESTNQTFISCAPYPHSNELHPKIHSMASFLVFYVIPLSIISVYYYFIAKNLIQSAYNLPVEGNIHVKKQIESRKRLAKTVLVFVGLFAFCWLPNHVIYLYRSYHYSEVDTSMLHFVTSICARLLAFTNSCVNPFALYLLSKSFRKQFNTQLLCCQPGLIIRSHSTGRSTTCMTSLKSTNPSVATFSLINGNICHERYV

DSG3 = target: T3, DSG3 (UniProt P32926 50-999, limits assumed); experiment: co-immunofluorescence on HSC-4 cells
T3 construct: whole, on cells
T3 sequence (looked up): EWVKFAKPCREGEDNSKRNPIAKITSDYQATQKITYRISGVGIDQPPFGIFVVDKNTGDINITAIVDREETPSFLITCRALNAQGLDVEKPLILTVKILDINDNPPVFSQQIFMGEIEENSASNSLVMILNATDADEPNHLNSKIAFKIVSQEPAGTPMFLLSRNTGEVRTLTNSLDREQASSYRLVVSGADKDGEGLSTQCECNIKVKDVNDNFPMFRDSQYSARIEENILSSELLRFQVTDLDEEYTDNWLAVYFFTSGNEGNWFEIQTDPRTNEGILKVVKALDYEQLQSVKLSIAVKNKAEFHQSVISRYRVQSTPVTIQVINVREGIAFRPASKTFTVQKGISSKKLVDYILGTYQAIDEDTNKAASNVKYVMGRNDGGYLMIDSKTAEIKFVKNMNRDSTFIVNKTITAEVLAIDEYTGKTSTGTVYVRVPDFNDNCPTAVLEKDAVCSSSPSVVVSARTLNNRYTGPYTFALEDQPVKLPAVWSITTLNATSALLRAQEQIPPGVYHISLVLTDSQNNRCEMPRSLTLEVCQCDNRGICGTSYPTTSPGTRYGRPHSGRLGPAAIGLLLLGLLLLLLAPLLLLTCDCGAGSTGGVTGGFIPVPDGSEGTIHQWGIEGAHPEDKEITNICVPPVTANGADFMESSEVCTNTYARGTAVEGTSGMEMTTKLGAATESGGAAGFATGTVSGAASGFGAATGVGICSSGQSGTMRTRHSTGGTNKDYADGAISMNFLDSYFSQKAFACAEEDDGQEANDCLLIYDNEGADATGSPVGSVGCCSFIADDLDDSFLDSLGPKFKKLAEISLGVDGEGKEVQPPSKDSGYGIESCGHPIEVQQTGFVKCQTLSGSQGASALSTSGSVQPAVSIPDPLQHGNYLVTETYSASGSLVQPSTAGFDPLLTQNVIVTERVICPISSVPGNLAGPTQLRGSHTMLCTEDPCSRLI

[1] = target: T4, IL6Rα (Interleukin 6 Receptor α) (UniProt P08887 20-468, limits assumed); experiment: cell-based or functional assay
T4 sequence (looked up): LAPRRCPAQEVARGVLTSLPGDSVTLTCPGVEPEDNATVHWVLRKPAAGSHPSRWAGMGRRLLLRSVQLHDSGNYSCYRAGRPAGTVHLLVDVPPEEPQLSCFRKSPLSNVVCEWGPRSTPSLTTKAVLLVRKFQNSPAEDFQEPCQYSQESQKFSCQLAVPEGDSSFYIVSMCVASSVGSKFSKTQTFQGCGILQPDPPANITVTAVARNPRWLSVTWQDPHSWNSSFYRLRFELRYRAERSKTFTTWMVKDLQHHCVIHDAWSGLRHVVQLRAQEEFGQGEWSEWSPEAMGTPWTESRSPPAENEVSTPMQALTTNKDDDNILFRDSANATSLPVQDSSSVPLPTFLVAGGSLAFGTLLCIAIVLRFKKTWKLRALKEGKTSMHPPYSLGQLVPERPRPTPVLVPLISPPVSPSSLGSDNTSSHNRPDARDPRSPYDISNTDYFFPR

B1: SSTP1 (Temporin1Dau1) (peptide)
peptide: FLPLLISALTSLFPKLGK
modifications: not fully specified
notes: Chemically synthesized mature peptide of 18 residues from frog skin secretion; No C-terminal amide is printed for SSTP1; also called SSTP1-biotin; SSTP1-Alexa Fluor-488
DLL1
  binding result: no binding
GRPR
  binding result: no binding
DSG3
  binding result: no binding
[1]
  growth inhibition of HSC-4 cells, MTT assay, IC50: 10.2 µM
  growth inhibition of MDA-MB-231 cells, MTT assay, IC50: 4.5 µM
